Here are results for 131 substances from the supplement of paper PMC12042874.

± gives the uncertainty stated by the source.

The nature of this data set: amyloid nucleation score (Sup35N fusion, yeast selection) (log enrichment); library NNK3; higher = more nucleation; inactive = no reads after selection. In short, it runs like this:
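Sup35N was fused to peptides of 20 random codons and expressed in psi-negative yeast, which were induced with 100 μM copper sulfate for 24 hours and then grown on medium lacking adenine and uracil for 7 days at 30°C. Plasmid inserts from input and output were sequenced on Illumina. The nucleation score is the DiMSum log enrichment of output over input reads, centred on the mode score of non-aggregating sequences. Sequences with under 100 input reads were left out, and random libraries had three technical output replicates.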

In the case of DVRRWNNYDLRGWVVA, the amyloid nucleation score entry was “inactive”.
For FLIKSFWNMIVCEAGDCCKD the value was 1.75 ± 0.12; for DFELFSSALGSLSNGHSENV, “inactive”.
Under YCVWFPSVCFIRRYVSIRLI stands “inactive”.
For VFGRWCFLETCMMHFTFSRY the value was 0.865 ± 0.22; for YGCGIQGLVQWTCDTGRMHC, “inactive”; for SWVTDWIL, “inactive”.
Turning to LRNLVTWRVQSKWFSIQSSW, the amyloid nucleation score entry was “inactive”.
For NLGLLKAVYCVG the value was “inactive”.
Under LETLVKPLELGSYFDFCCWA stands “inactive”; under LQVLFSYYFENRSGDLVRDD, 0.641 ± 0.14; under TSIIYMFNSFL, 2.9 ± 0.06.
For MFLCYNVLVVTESLGLAHLD the value was “inactive”; for DVCLGWAQTAFRCLMRG, “inactive”.
For YRAYYSYSFRW, the amyloid nucleation score entry is “inactive”.
Under WWRKPLTFNDRIWRLRKHRS stands “inactive”; under VGYGFIC, “inactive”; under LAWVLMHSAKLGLKKRQAWG, “inactive”.
In turn, NISFFTHLVSYRPTVRSSD had an amyloid nucleation score of 1.24 ± 0.14.
For AFAFYSD the value was “inactive”; for YWSGRIKGTR, “inactive”.
For LARVFASTGSSCSRSMNAMN the value was “inactive”; for LYVTRVSVSVVTYRFTCKRV, “inactive”; for RTMAFLIFS, 0.172 ± 0.56.
Under CFTDSFINTLCVFNIDPGFP stands 2.46 ± 0.051.
Take LYMKSTKLVLTKRDISTFRC: the amyloid nucleation score was determined as 1.11 ± 0.14.
Under ESLIRVICMVDERSEQTWSG stands “inactive”; under YDFYTIVNIRTLHPRLIFFM, -0.195 ± 0.9; under VKGGRLISLNRVLFLEDPVG, “inactive”.
For GITMFGLHMYQNDCLEVAWL the value was 0.904 ± 0.25; for TGIWSGYYKLFLSVLRGRRV, “inactive”; for NLSWVLAILCCGL, 1.39 ± 0.15.
For LESSVMLLKRRIILVLCLHG the value was “inactive”; for SLNRWLSKYYLHTA, “inactive”.
With CECTRVCRVCPSVSMHAIK, the amyloid nucleation score result is “inactive”.
For SSDYTLVEILSVLFCPVGCS the value was “inactive”; for LMSYSRFGCSDSYLNVDSSA, “inactive”; for GSLCLSGKKIVFLHMNEAMG, “inactive”.
For FKAWMSLKLSTRRLNSCVPR the value was “inactive”; for KTLIVVAVSFIWL, 0.887 ± 0.19; for LFLWKTTMTPGLHRSSVVGR, “inactive”.
For SSISVRENYFMASRVMMVGC the value was 0.234 ± 0.56; for SNWVISVLVRVNLAYAYLTD, “inactive”.
In the case of SYVCIIYGNDGSLSRCKDDL, the amyloid nucleation score entry was “inactive”.
Under HGTIVIDYRHSPW stands 1.07 ± 0.1.
Under YGVLS stands “inactive”; under LDSFATRGYSWSLGIIVMKI, “inactive”; under ISTKDTLM, “inactive”.
For NVIISQA the value was “inactive”; for WWCLFWVSWN, “inactive”; for FNGEGFSRQG, -0.457 ± 1.8.
Regarding NTHNNIGGRYAKYGWLMRSK, the amyloid nucleation score entry is “inactive”.
For ILCVFVYRSRAESYEL the value was 0.446 ± 0.23; for IWRGSKDYKSPVRHFSQAN, “inactive”.
For NRTFNYNIQNVGSSWEL the value was 0.233 ± 0.19; for LLIIVYLVWCALIRRGTQPR, “inactive”.
Consider DSKSSYK, for which the amyloid nucleation score entry is “inactive”.
Under AGVVHRWGLQCFSLNFECGC stands 2.08 ± 0.079; under RRWQVCVAGQDSEGTVKVML, 0.108 ± 0.56; under AKAEC, “inactive”.
Under FWKAFRFTDSVFPIKHPNLS stands “inactive”; under FSRTRVTLV, “inactive”.
For YLTGTMSVEFRPHGMPNLSK the value was 1.82 ± 0.08; for RVVAFHIANDLLLSLKKS, 1.39 ± 0.093; for TLANQSHLISYYDSDHCRLL, -0.38 ± 0.78.
As to YKLNMLLGYLLMFTLGIHAV, the amyloid nucleation score entry was “inactive”.
For LGKSKFMAGQFLFCYSSVVL the value was 1.58 ± 0.12; for IFQKIECLTGMGIVGCSTSM, “inactive”.
In turn, RGLWLEQRAVNNYVGR showed an amyloid nucleation score of -0.291 ± 0.46.
Under GSFAGCMGCLCYILVCSVYR stands 0.717 ± 0.12.
Under RQLMIDAQSVYKCCGQPW stands “inactive”; under PCSYLCSRVFIIC, “inactive”; under LDLFSRNSETRAKSDRVWWT, “inactive”.
For HHKAEGAHVKITDLSFDVKS the value was “inactive”; for KVYSIYTNKNFGCFDYNWCI, “inactive”; for RTFFYWIKLAINFSNVCRGF, “inactive”.
As to YSTFLFQGYLFLEPEYSGCR, the amyloid nucleation score result is “inactive”.
Under KCGRSR stands “inactive”; under SLVPDNAANAMRPTWINLWW, 1.84 ± 0.078.
For VEVMSGDEMWCLWLEFPSFE the value was “inactive”.
Under QWVVEHRFWLVYNGEHRNSY stands 0.762 ± 0.15; under CVTRDDLCYW, “inactive”; under VLDVFKGIW, “inactive”.
As for CCYATSLYINDDATIIVNLM, the amyloid nucleation score was 2.74 ± 0.072.
For FTFCTCAKSAWTGLGLQGKI the value was “inactive”; for LALFVSCICVIVSELFFTMN, “inactive”.
Under PDVDLTTMLNNNMNYMYVKI stands “inactive”.
For FQCFFRVLVV the value was “inactive”; for RCLEEP, 0.145 ± 0.34.
As to SFGAKCARGQDSTASVFNNG, the amyloid nucleation score is -0.33 ± 1.1.
For YSAAEDVKWVLGFCYAGFNS the value was “inactive”; for SYMYLRGVLRYLVDMFALWI, “inactive”.
For VLVCTLVTSLTDAKFRKYFS the value was 0.813 ± 0.2; for YVYSRVMECKDRHYETYFVA, “inactive”.
For RIMWSRRVENVL the value was “inactive”; for HMSVVSVFIRRMPNASSTRR, 0.562 ± 0.13; for SILMTVYDGYHKRSKNIAQC, “inactive”.
The substance AVDLNVTLQWVCSRGRRWVF displayed an amyloid nucleation score of 0.051 ± 0.3.
With SECYKWRIFCNILNR, the amyloid nucleation score was 2.36 ± 0.058.
Under IWIRAVDLGLDGLPSFFSIS stands “inactive”; under KCGFLTSPHMFSLK, “inactive”.
Turning to FVAADSPGVSSFKAN, the amyloid nucleation score result was “inactive”.
For CVRYSRSGWVCDTGRLKDPC the value was “inactive”.
For FIEVYCKMGCLRYLVWGWSD the value was “inactive”.
Under HGFSVTILTRVLTVGNSRRS stands “inactive”; under GQVLNCVRNRIRIAVKRRGG, “inactive”.
Turning to PFNPSYIFRLLYL, the amyloid nucleation score entry is “inactive”.
Under NWYVECYITYSLVLYLANDS stands 1.69 ± 0.066; under KIWNCVYVGWNIVVNNIKGL, 2.66 ± 0.076.
For SSNLDTTVCFPVCSAPELEG the value was “inactive”.
Consider RSYFYTCDSLDALHVHLASH, for which the amyloid nucleation score result is “inactive”.
Under FTIGNTA stands “inactive”; under VVSMQYCLFS, 2.81 ± 0.072; under ITGPTSVYE, “inactive”.
Under TGCGQFH stands “inactive”; under FIPGMQA, “inactive”; under GAPGLMFVFLKKSVFLYSYL, “inactive”.
NKMDSKYPGRLCLMWGW returned an amyloid nucleation score of 0.48 ± 0.19.
Under KFIVVGYLGTIPTHPVGVPY stands 0.6 ± 0.25; under ACVRKIIKVGYFYERISIRV, “inactive”; under IWDGSADKFVDPHRACRLWR, “inactive”.
As to GHSHCMNSVLHSNMSLNTVI, the amyloid nucleation score entry was “inactive”.
For RCNKRTEGVSE the value was “inactive”; for TSTDVQVGYVNMLLLRVLFF, “inactive”; for RGMISVMPSVIGPAL, “inactive”.
Substance RSGWCHLPQVRNMWTVIIDG registered an amyloid nucleation score of -0.648 ± 1.1.
As to FMPHARASQQLPGGSHFLNL, the amyloid nucleation score entry is “inactive”.
Under YGCRRDIFKYSMTLLMDAID stands “inactive”; under TMKGTSKVSLLVSSGASRMG, “inactive”.
Under IFWHQRRLMTCCNKYTFGYG stands “inactive”; under FMKSMVLYPDTVLFYFCLLH, “inactive”.
